Measured values as given in patent US20250027068.

Target: pooled human IgG (human IgG1,2,3 and 4)

Protein | Enzyme Activity Endpoint Assay (purified): Fab′2 | Enzyme Activity Endpoint Assay (purified): Fc | Enzyme Activity Endpoint Assay (purified): IgG | Enzyme Activity Endpoint Assay (purified): scIgG | Enzyme activity endpoint: Fab′2 | Enzyme activity endpoint: Fc | Enzyme activity endpoint: IgG | Enzyme activity endpoint: scIgG
PRT-524 (protein) MITSVWTKGVTPPTDFRKIVDGNIAYYHAPYKAGQGWYDITKAFDGGDNLLCGAATAGNMLHWWFDQNKEEIEAYLKKHPEKQKIIFNNQELFDLKAVINTKDSQTNSALFNYFKDKAFPNLSARRLGVFPDLVLDMFINGYYLNVYKTQTTDVNRTYQTKDRRGGIFDAVFTRGVQSKLLTERHDLKNKTLKEISDLIKQELTEGKALGLSHTYANVRINHVINLWGADFDSNGNLEAIYVTDSDTNASIGMKKYFVGVNSAGKVAISAKEIKEDNIGAQVLGLFTLSTGQDIWNQTNLEHHHHHH | 474 ng/µL | 285 ng/µL | 676 ng/µL | 0 ng/µL | – | – | – | –
PRT-673 (protein) MQITSVWTKGVTPPTPEQFRYYNEDVLHAPYKPHQGWYDITKTFNGKDNLLCGAATAGNMLHWWFDQNKTQIEAYLKKYPEKQKIIFNNQKMFDLRKAINTKDSQTNSALFSYFKDKAFPNLSARQRGVMPDLVLDMFINGYYLNVGKTQSTDVNRPYQTRDKRGGIFDHVFGRGDQTKLLTARHDLKNKTLNEISQLIKQELSEGKALALSHTYANVSISHVINLWGADFNAEGNLEAIYVTDSDSDAKIGMKKYYVGKNASGKVAISAKKIEGENIGAQVLGLYTLSTGKDIWQKLSLEHHHHHH | – | – | – | – | 34 ng/µL | 252 ng/µL | 601 ng/µL | 989 ng/µL
PRT-617 (protein) MQITSVWTKGVTPLTPEQFRYNNEDVIHAPYLPHQGWYDITKAFDGGDNLLCGAATAGNMLHWWFDQNKTEIEAYLSKYPEKQKIIFNNQELFDLRAAINSKDSQTNSQLFNYFRDKAFPNLSARQLGVMPDLVLDMFINGYYLNVFKTQSTDVNRPYQDPDKRGGIFDDVFKEGDQTTLLTARHDLKNGGLNDISTIIKQELQSGRALALSHTYANVSISHVINLWGADFNAEGNLEAIYVTDSDANQSIGMKKYKVGINAHGHVAISAKKIEGENIGAQVLGLFTLSSGKEIWQKLSLEHHHHHH | – | – | – | – | 630 ng/µL | 34 ng/µL | 798 ng/µL | 25 ng/µL
PRT-507 (protein) MITSVWTKGVTPPTDFIKGEDVFHAPYKAGQGWYDITKAFDGGDDLLCGAATAGNMLHWWFDQNKEEIEAYLKKHPEKQKIMFGDQELLDVRKVINTKDSQTNSALFNYFKDKAFPNLSARRLGVMPDLVLDMFINGYYLNVYKTQTTDVNRTYQTKDRRGGIFDAVFTRGDQSKLLTERHDFKEKTLKEISDLIKQELTEGKALGLSHTYANVRINHVINLWGADFDSNGNLEAIYVTDSDSNASIGMKKYFVGVNSAGKVAISAKEIKEDNIGAQVLGLFTLSTGQDIWNQTNLEHHHHHH | 927 ng/µL | 355 ng/µL | 112 ng/µL | 0 ng/µL | – | – | – | –
PRT-499 (protein) MVTSVWTKGVTPPADFRKIVDGNIAYYHAPYVANQGWYDITKTFNGKDDLLCGAATAGNMLHWWFDQNKEYIEAYLKKHPEKQKIMFGDQELLDVRKAINTKGSQKNSELFNYFRDKAFPNLSARRLGVMPDLVLDMFINGYYLNVTKTQTTDVNRTYQEKDKRGGIFDAVFTRGDQSKLLTSRHDLKNKGLKEISDLIKQELTEGKALGLSHTYANVRINHVINLWGADFDSDGNLKAIYVTDSDSNASIGMKKYFVGVNSAGKVAISAKEIKEDNIGAQVLGLFTLSTGQDIWNQTNLEHHHHHH | 637 ng/µL | 365 ng/µL | 436 ng/µL | 45 ng/µL | – | – | – | –
PRT-488 (protein) MVTSVWTKGVTPPTDFRKIVDGNIAYYHAPYKAGQGWYDITKAFDGGDNLLCGAATAGNMLHWWFDQNKDQIERYLKEHPEKQKIIFNNQELFDLKAAIDTKDSQTNSELFNYFKEKAFPYLSTKHLGVFPDHVLDMFINGYRLSLTNHGPTPVKEGSKDKRGGIFDAVFTRGVQSKLLTSRHDLKNKTLKEISDLIKQELTEGKALGLSHTYANVRINHVINLWGADFDSEGNLKAIYVTDSDTNASIGMKKYFVGVNSAGKVAISAKEIKEDNIGAQVLGLFTLSTGQDIWNQTNLEHHHHHH | 134 ng/µL | 246 ng/µL | 216 ng/µL | 803 ng/µL | – | – | – | –
PRT-613 (protein) MQITTVWTKGVTPLTPEQFRYNNEDVIHAPYLAHQGWYDITKAFDGKDNLLCGAATAGNMLHWWFDQNKTEIEAYLSKHPEKQKIIFNNQELFDLKAAISTKDSQTNSQLFNYFRDKAFPNLSARQLGVMPDLVLDMFINGYYLNVFKTQSTDVNRPYQDKDKRGGIFDDVFTRGDQTTLLTARHDLKNGGLNDISTIIKQELTNGRALALSHTYANVSISHVINLWGADFNAEGNLEAIYVTDSDANARIGMKKYGVGINAHGHVAISAKKIEGENIGAQVLGLFTLSSGKDIWQKLSLEHHHHHH | – | – | – | – | 686 ng/µL | 433 ng/µL | 15 ng/µL | 251 ng/µL
PRT-473 (protein) MVTSVWTKGVTPPTDFRKIVDGNIAYYHAPYKAGQGWYDITKTFNGKDDLLCGAATAGNMLHWWFDQNKEQIENYLKKHPEKQKINFNGEQMFDVKEAIDTKDSQLDSKLFEYFKEKAFPYLSTKHLGVFPDHVIDMFINGYRLSLTNHGPTPVKRGSKDPRGGIFDAVFTRGDQSKLLTNRHDFKEKTLKEISDLIKQELTEGKALGISHTYANVRINHVINLWGADFDAEGNLEAIYVTDSDSNASIGMKKYFVGVNSNGKVAISAKEIEEDNIGAQVLGLFTLSTGQDIWNQTNLEHHHHHH | 1340 ng/µL | 384 ng/µL | 59 ng/µL | 0 ng/µL | – | – | – | –
PRT-505 (protein) MVTSVWTKGVTPPTDFIKGEDVFHAPYKAGQGWYDITKAFDGGDDLLCGAATAGNMLHWWFDQNKEYIEAYLKKHPEKQKIMFGDQELLDVRKAINTKGSQKNSELFNYFRDKAFPNLSARRLGVMPDLVLDMFINGYYLNVTKTQTTDVNRQEQEKDKRGGIFDAVFGRGDQTKLLTSRHDLKNKGLKEISDLIKQELTEGKALGLSHTYANVRINHVINLWGADFDSDGNLKAIYVTDSDSNASIGMKKYFVGVNSAGKVAISAKEIKEDNIGAQVLGLFTLSTGQKIWNKTNLEHHHHHH | 37 ng/µL | 148 ng/µL | 609 ng/µL | 752 ng/µL | – | – | – | –
PRT-683 (protein) MQITSVWTKGVTPLTPEQFRYNNEDVIHAPYLAHQGWYDITKAFNGKDNLLCGAATAGNMLHWWFDQNKEEIEAYLKKHPEKQKIIFNNQELFDLRKAINTKDSQTNSQLFNYFRDKAFPNLSARQLGVMPDLVLDMFINGYYLNVFKTQSTDVNRPYQDKDKRGGIFDHVFTRGDQTTLLTARHDLKNKTLNDISQIIKQELQEGKALALSHTYANVSISHVINLWGADFNAEGNLEAIYVTDSDANASIGMKKYFVGKNAHGHVAISAKKIEGENIGAQVLGLFTLSSGKEIWQKLSLEHHHHHH | – | – | – | – | 1100 ng/µL | 570 ng/µL | 0 ng/µL | 0 ng/µL
PRT-675 (protein) MQITSVWTKGVTPPTMDDFTINGEDVFHAPYVANQGWYDITKTFNGKDDLLCGAATAGNMLHWWFDQNKEQIERYLKKHPEKQKIIFNNQEMFDLKEAINTKDSQTDSKLFNYFRDKAFPNLSARQLGVMPDHVLDMFINGYYLNLTKTQSTDVNRPEDTKDLRGGIFDHVFTRGDQSKLLTARHDLKNKTLKEISDLIKQELTEGKALGLSHTYANVRISHVINLWGADFDAEGNLEAIYVTDSDSNASIGMKKYYVGVNSAGKVAISAKKIEGDNIGAQVLGLYTLSTGKDIWQKLSLEHHHHHH | – | – | – | – | 448 ng/µL | 400 ng/µL | 229 ng/µL | 456 ng/µL
PRT-459 (protein) MVTSVWTKGVTPPTDFIKGEDVFHAPYKAGQGWYDITKAFDGGDDLLCGAATAGNMLHWWFDQNKDQIERYLKEHPEKQKINFNGEQMFDVKEAIDTKDSQTNSELFNYFKEKAFPYLSTKHLGVFPDHVLDMFINGYRLSLTNHGPTPVKEGSKDPRGGIFDAVFTRGDQSKLLTSRHDFKEKTLKEISDLIKQELTEGKALGLSHTYANVRINHVINLWGADFDSEGNLKAIYVTDSDSNASIGMKKYFVGVNSAGKVAISAKEIKEDNIGAQVLGLFTLSTGQDIWNQTNLEHHHHHH | 137 ng/µL | 193 ng/µL | 373 ng/µL | 415 ng/µL | – | – | – | –
PRT-472 (protein) MVTSVWTKGVTPPTDFIYGEDVLHAPYKAGQGWYDITKTFNGKDDLLCGAATAGNMLHWWFDQNKEQIENYLKKHPEKQKINFNGEQMFDVKEAIDTKDSQLDSKLFEYFKEKAFPYLSTKHLGVFPDHVIDMFINGYRLSLTNHGPTPVKRGSKDPRGGIFDAVFTRGDQSKLLTNRHDLKNKTLKEISDLIKQELTEGKALGISHTYANVRINHVINLWGADFDAEGNLEAIYVTDSDSNASIGMKKYFVGVNSNGKVAISAKEIEEDNIGAQVLGLFTLSTGQDIWNQTNLEHHHHHH | 1130 ng/µL | 386 ng/µL | 0 ng/µL | 0 ng/µL | – | – | – | –
PRT-689 (protein) MQITSVWTKGVTPLTMDQFTNNNEDVIHAPYKPGQGWYDITKTFDGKDNLLCGAATAGNMLHWWFDQNKEEIENYLKKHPEKQKIIFNNQKLFDLRKAINTKDSQTNSALFNYFRDKAFPNLSARQLGVMPDLVLDMFINGYYLNVFKTQSTDVNREYQTKDKRGGIFDDVFGRGDQTTLLTARHDLKNGGLNDISQIIKQELSSGKALALSHTYANVSISHVINLWGADFNEEGNLEAIYVTDSDANASIGMKKYYVGKNAHGKVAISAKKIEGENIGAQVLGLFTLSSGKEIWQKLSLEHHHHHH | 335 ng/µL | 248 ng/µL | 376 ng/µL | 174 ng/µL | – | – | – | –
